In one data set the target is MBP-ZFc (OZ076) (artificial). Kind of data set: EMSA; biotinylated oligo, flanks not given; text states low nanomolar affinity without values. As to conditions: label: 5'-biotin. The protocol:
(§1) From this analysis, the amount of ZF-chimera present in cells was estimated at approximately 5000 per cell or 8 μM. The plasmid concentration in cells was determined to be approximately 127 per cell or […]. These values were used to design/select ZF domains with appropriate affinity and to design DNA scaffolds with enough binding sites to accommodate all ZF fusion proteins. FIG. 4B is a western blot analysis comparing the soluble and insoluble protein levels of unmodified MBP with MBP fused to 1, 2, 3 or 4 fingers as indicated. Flow cytometric analysis of cellular fluorescence levels of superfolder green fluorescent protein (sfGFP) fused to increasing number of fingers as indicated (FIG. 4B; right). FIG. 4C is an EMSA of purified PBSII-nYFP and cYFP-Zif268 chimeras using […] DNA with PBSII or Zif268 binding sites. MW, molecular weight ladder. Arrow indicates chimera-DNA complexes. EMSA of purified MBP-ZFa, MBP-ZFb and MBP-ZFc chimeras using varying amounts of biotinylated DNA containing the ZFa, ZFb or ZFc binding site is shown in FIG. 4D. Detection of DNA and DNA-protein complexes was with streptavidin-HRP against biotinylated DNA. […]
(§2) For EMSA with PBSII and Zif268, 1 μg of the purified PBSII-nYFP and cYFP-Zif268 chimeras were incubated with 375 μM scaffold DNA for 3 h. […] Nucleic acid-protein complexes were detected under UV light. […]
(In general: In EMSA bound probe runs differently from free probe, usually more slowly.)

Another data set has as its target MBP-ZFb (OZ300) (artificial). The description is as above. The note with it: label: 5'-biotin. The protocol: as §1, §2
Data set [1] concerns the target PBSII-nYFP chimera (artificial). As to the kind of experiment: EMSA; full oligo sequence not given; text states low nanomolar affinity without values. The note with it: tags: nYFP C-terminal fusion, His.
Data set [2] has the same target. As to the kind of experiment: SPR; injected as mixture with cYFP-Zif268, 5 uM; same SPR buffer with 0.1 mM ZnCl2. The note with it: tags: nYFP C-terminal fusion, His. The protocol: Proteins that were directly dialyzed against buffer A (see above) were used in surface plasmon resonance (SPR) experiments. Proteins were further concentrated using Amicon Ultra-15 Centrifugal Filter Unit with Ultracel-10 membrane. The experiments were conducted using T100 apparatus (GE Healthcare, Biacore) and streptavidin-coated sensor chip (SA). […] The biotinylated single-stranded anchor DNA (5′-CGCTCGAGTAGTAAC-3′-Biotin; SEQ ID NO: 41) was immobilized on all four flow-cells. The anchor allowed capture of the double-stranded DNA molecule with complementary overhang. A DNA scaffold (5′-[…]-3′; SEQ ID NO: 42) was used that contained ZF binding sites for Zif268 and PBSII (underlined), respectively. Control DNA (5′-[…]-3′; SEQ ID NO: 43) contained a scrambled version of the scaffold and was used to correct the responses for unspecific binding of ZF chimeras. The control DNA was immobilized in the first flow-cell, while the DNA scaffold was used in the second flow cell. Typically, immobilization of control and scaffold DNA used 0.5 μM DNA and was performed for 5 min at 5 μl/min. Protein binding was measured following injection of appropriate concentration of PBSII-nYFP and/or cYFP-Zif268 chimeras in the SPR buffer. The surface of the sensor chip was regenerated by two 30 s injections of 50 mM NaOH that removed the DNA from the anchor.

Data set [3] deals with cYFP-Zif268 chimera. Kind of data set: SPR; 20 mM HEPES pH 7.4, 150 mM NaCl, 2 mM DTT, 0.1 mM ZnCl2; 1 and 5 uM protein. (In general: In SPR one partner is held on a chip, and binding of the other changes the refractive index at the surface.)
Another data set concerns the target MBP-ZFa (OZ052) (artificial). As to the kind of experiment: EMSA; biotinylated oligo, flanks not given; chimera-DNA dimer also seen; text states low nanomolar affinity without values. As to conditions: label: 5'-biotin. The protocol: as §1, §2
The target in data set [4] is cYFP-Zif268 chimera. Kind of data set: SPR; random scaffold reference, 1 uM protein; used to correct for unspecific binding.
Data set [5] addresses cYFP-Zif268 chimera. Kind of data set: EMSA; full oligo sequence not given; text states low nanomolar affinity without values.

PBSII-nYFP chimera (artificial), sequence (chain, as listed by the source mutant): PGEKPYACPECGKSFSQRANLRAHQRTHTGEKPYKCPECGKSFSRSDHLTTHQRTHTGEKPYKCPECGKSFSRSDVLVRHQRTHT
MBP-ZFc (OZ076) (artificial), sequence (chain, as listed by the source): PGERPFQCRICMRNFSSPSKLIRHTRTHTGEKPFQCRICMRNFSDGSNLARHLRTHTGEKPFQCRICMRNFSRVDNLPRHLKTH
MBP-ZFa (OZ052) (artificial), sequence (chain, as listed by the source): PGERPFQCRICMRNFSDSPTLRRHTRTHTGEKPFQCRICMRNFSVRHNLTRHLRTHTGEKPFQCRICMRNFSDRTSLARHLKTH
MBP-ZFb (OZ300) (artificial), sequence (chain, as listed by the source): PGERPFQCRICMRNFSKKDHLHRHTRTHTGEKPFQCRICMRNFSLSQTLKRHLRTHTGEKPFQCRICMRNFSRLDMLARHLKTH

B1: ZFc binding site DNA (dsDNA)
DNA 1: GAGGACGGC
DNA 2: GCCGTCCTC
Regarding B1, the binding result with MBP-ZFc (OZ076) was “binds”.

B2: ZFb binding site DNA (dsDNA)
DNA 1: GCGGCTGGG
DNA 2: CCCAGCCGC
As for B2, the binding result in the data set with MBP-ZFb (OZ300) was “binds”.

B3: PBSII binding site DNA (dsDNA)
DNA 1: GTGTGGAAA
DNA 2: TTTCCACAC
In the case of B3, the binding result in the data set with PBSII-nYFP chimera [1] was “binds”.

B4: DNA scaffold with Zif268 and PBSII sites, 2-bp spacer (dsDNA)
DNA 1: GTTACTACTCGAGCGATCGGAATTCGAAGGGGAATTGCTGCTGCGGTGTTTGGATGGAGCGTGGGCGGGGTGTGGAAATTGATGCTGCATTGACCACCCAAGACGACTGCAGTACA
DNA 2: TGTACTGCAGTCGTCTTGGGTGGTCAATGCAGCATCAATTTCCACACCCCGCCCACGCTCCATCCAAACACCGCAGCAGCAATTCCCCTTCGAATTCCGATCGCTCGAGTAGTAAC
B4: the binding result with PBSII-nYFP chimera [2] and in the data set with cYFP-Zif268 chimera [3] was “binds” in each case.

B5: ZFa binding site DNA (dsDNA)
DNA 1: GTCGATGCC
DNA 2: GGCATCGAC
Regarding B5, the binding result with MBP-ZFa (OZ052) is reported as “binds”.

B6: scrambled control scaffold (dsDNA)
DNA 1: GTTACTACTCGAGCGGAATTCATCTAAGTTACTAGAGTCCTTATAGTTGACTCTTGTTCCACATTCTACTGTACACGCTCAGTACTCGAGCATACCTATCTCCTGCAGTACA
DNA 2: TGTACTGCAGGAGATAGGTATGCTCGAGTACTGAGCGTGTACAGTAGAATGTGGAACAAGAGTCAACTATAAGGACTCTAGTAACTTAGATGAATTCCGCTCGAGTAGTAAC
On to B6, for which the binding result with cYFP-Zif268 chimera [4] is “no binding”.

B7: Zif268 binding site DNA (dsDNA)
DNA 1: GCGTGGGCG
DNA 2: CGCCCACGC
As for B7, the binding result with cYFP-Zif268 chimera [5] is recorded as “binds”.

The values are drawn from US20130130347, “CONSTRUCTS AND METHODS FOR THE ASSEMBLY OF BIOLOGICAL PATHWAYS” (CORNELL UNIVERSITY, published 2013).
